Positions count from the first letter of the chain named. Names may count otherwise.
B1: R222Q/K374E: ADA2 combination variant SEQ ID NO:263 (protein)
chain: IDETRAHLLLKEKMMRLGGRLVLNTKEELANERLMTLKIAEMKEAMRTLIFPPSMHFFQAKHLIERSQVFNILRMMPKGAALHLHDIGIVTMDWLVRNVTYRPHCHICFTPRGIMQFRFAHPTPRPSEKCSKWILLEDYRKRVQNVTEFDDSLLRNFTLVTQHPEVIYTNQNVVWSKFETIFFTISGLIHYAPVFRDYVFRSMQEFYEDNVLYMEIRAQLLPVYELSGEHHDEEWSVKTYQEVAQKFVETHPEFIGIKIIYSDHRSKDVAVIAESIRMAMGLRIKFPTVVAGFDLVGHEDTGHSLHDYKEALMIPAKDGVKLPYFFHAGETDWQGTSIDRNILDALMLNTTRIGHGFALSKHPAVRTYSWEKDIPIEVCPISNQVLKLVSDLRNHPVATLMATGHPMVISSDDPAMFGAKGLSYDFYEVFMGIGGMKADLRTLKQLAMNSIKYSTLLESEKNTFMEIWKKRWDKFIADVATK
modifications: human ADA2 R219Q/K371E, mature numbering
B2: R222Q/S265N/R23E: ADA2 combination variant SEQ ID NO:270 (protein)
chain: B1 chain with R20E, S262N, E371K
modifications: human ADA2 R219Q/S262N/R20E, mature numbering
B3: R222Q/S265N/K374E/R23E: ADA2 combination variant SEQ ID NO:271 (protein)
chain: B1 chain with R20E, S262N
modifications: human ADA2 R219Q/S262N/K371E/R20E, mature numbering
B4: R222Q/R23E: ADA2 combination variant SEQ ID NO:265 (protein)
chain: B1 chain with R20E, E371K
modifications: human ADA2 R219Q/R20E, mature numbering
B5: R222Q/S265N/K374D/R23E: ADA2 combination variant SEQ ID NO:272 (protein)
chain: B1 chain with R20E, S262N, E371D
modifications: human ADA2 R219Q/S262N/K371D/R20E, mature numbering
B6: R222Q/K374D/R23E: ADA2 combination variant SEQ ID NO:267 (protein)
chain: B1 chain with R20E, E371D
modifications: human ADA2 R219Q/K371D/R20E, mature numbering
B7: R222Q/K374D: ADA2 combination variant SEQ ID NO:264 (protein)
chain: B1 chain with E371D
modifications: human ADA2 R219Q/K371D, mature numbering
B8: R222Q/S265N/K374D: ADA2 combination variant SEQ ID NO:269 (protein)
chain: B1 chain with S262N, E371D
modifications: human ADA2 R219Q/S262N/K371D, mature numbering
B9: R222Q/S265N/K374E: ADA2 combination variant SEQ ID NO:268 (protein)
chain: B1 chain with S262N
modifications: human ADA2 R219Q/S262N/K371E, mature numbering
B10: R222Q/K374E/R23E: ADA2 combination variant SEQ ID NO:266 (protein)
chain: B1 chain with R20E
modifications: human ADA2 R219Q/K371E/R20E, mature numbering
B11: K374D/V102-Q147del→(GGGGS)3 (protein)
chain: IDETRAHLLLKEKMMRLGGRLVLNTKEELANERLMTLKIAEMKEAMRTLIFPPSMHFFQAKHLIERSQVFNILRMMPKGAALHLHDIGIVTMDWLVRNGGGGSGGGGSGGGGSNVTEFDDSLLRNFTLVTQHPEVIYTNQNVVWSKFETIFFTISGLIHYAPVFRDYVFRSMQEFYEDNVLYMEIRARLLPVYELSGEHHDEEWSVKTYQEVAQKFVETHPEFIGIKIIYSDHRSKDVAVIAESIRMAMGLRIKFPTVVAGFDLVGHEDTGHSLHDYKEALMIPAKDGVKLPYFFHAGETDWQGTSIDRNILDALMLNTTRIGHGFALSKHPAVRTYSWDKDIPIEVCPISNQVLKLVSDLRNHPVATLMATGHPMVISSDDPAMFGAKGLSYDFYEVFMGIGGMKADLRTLKQLAMNSIKYSTLLESEKNTFMEIWKKRWDKFIADVATK
modifications: (GGGGS)3 linker replaces deleted region; human ADA2 K371D/V99-Q144del->(GGGGS)3, mature numbering

Assay: Kinetic assessment of adenosine deaminase activity (ammonia assay, Michaelis-Menten)
Assay type: biochemical
Details: pH 6.5; [E] = 8.5 nM
Protocol: Adenosine deaminase activity was determined by the measurement of ammonia released from adenosine when broken down to inosine. Ammonia was measured using a commercially available Ammonia Assay kit (Cat. No. AA0100, Sigma-Aldrich, St. Louis, Mo.). The kit contains dry reagents containing α-ketoglutaric acid and NADPH, which were reconstituted with 5 mL water prior to use in the assay. Ammonia reacts with α-ketogluaric acid (KGA) and reduced nicotinamide adenine dinucleotide phosphate (NADPH) in the presence of L-glutamate dehydrogenase (GDH).
Kinetics parameters of rHuADA2 WT and variants were compared using this assay at different adenosine concentrations at pH 7.6 and 6.5. Adenosine concentrations ranging from 20 μM to 20 mM were used. Sub-molar concentration of adenosine stock was prepared in 1N NaOH.
For the enzymatic assays at pH 7.6, adenosine was serially diluted with 100 mM sodium acetate (NaOAc), pH 4.9. A 2× reaction mixture was prepared, containing reconstituted ammonia assay reagent (containing about 4 mM α-ketoglutarate and about 300 μM NADPH), WT rHuADA2 or variants at 1 μg/mL (17 nM) and glutamate dehydrogenase (GDH, 1:50 dilution). 85 μL of adenosine was added to 85 μL 2× mixture in duplicate in a UV-transparent half-area plate. The change in absorbance (ΔA) at 340 nm over time at room temperature was monitored.
For the enzymatic assay at pH 6.5, adenosine was serially diluted with 200 mM piperazine-N,N′-bis(2-ethanesulfonic acid) (PIPES), pH 6.5. A 2× reaction mixture in 200 mM PIPES, pH 6.5 was prepared, containing 4 mM α-ketoglutarate, 300 μM NADPH, 1 μg/mL (17 nM) rHuADA2 or variants and 50 U/mL GDH (Cat No. G2626, Sigma-Aldrich). The enzymatic reaction was initiated by adding equal volume of adenosine to the 2× mixture in a UV-transparent half-area plate as described above, and the change in absorbance (AA) at 340 nm over time at room temperature was monitored.
Adenosine deaminase activity in mU/mL (μM/min equivalent) was calculated using the following formula: 1 mU/mL=−(−ΔA/min×Tv)/(Sv×ϵ×1) • where Tv=total volume (170 μL), Sv=sample volume (85 μL), ϵ=6.22×10^−3 μM^−1 cm^−1, 1=1 cm.
The activity data were fitted with non-linear regression of Michaelis-Menten equation using Graphpad Prism software to obtain Km and Vmax. Other kinetics parameters such as kcat and kcat/Km were also determined.

Molecule	Km [µM]	Vmax [µM/min]
B1	990	58.56
B2	1010	40.59
B3	770	54.82
B4	840	60.47
B5	810	45.78
B6	670	60.68
B7	790	60.87
B8	760	50.89
B9	800	45.53
B10	860	54.48

Same assay, conditions: pH 6.5; [E] = 8.5 nM; kcat=Vmax/0.0085/60

Molecule	kcat [s⁻¹]
B1	114.82
B2	79.59
B3	107.49
B4	118.57
B5	89.76
B6	118.98
B7	119.35
B8	99.78
B9	89.27
B10	106.82

Same assay, conditions: pH 7.6; [E] = 8.5 nM

Molecule	Km [µM]	Vmax [µM/min]	kcat [s⁻¹]
B11	820	43.01	84.33
B1	1580	87.27	–
B2	1290	67.24	–
B3	1240	90.91	–
B4	1460	84.71	–
B5	1230	72.58	–
B6	1340	88.43	–
B7	1710	77.01	–
B8	1190	70.96	–
B9	1350	65.43	–
B10	1920	78.42	–

Same assay, conditions: pH 7.6; [E] = 8.5 nM; kcat=Vmax/0.0085/60

Molecule	kcat [s⁻¹]
B1	171.12
B2	131.84
B3	178.25
B4	166.10
B5	142.31
B6	173.39
B7	151.00
B8	139.14
B9	128.29
B10	153.76
